Measured values reported in article doi:10.1101/2024.04.30.591854 (2024).

Target: HLA-Cw4-β2m complex refolded with peptide (human | )
Experiment: SPR

Binder | Kd [µM]
KIR2DL1-Fc fusion protein (Fc fusion) HEGVHRKPSLLAHPGRLVKSEETVILQCWSDVMFEHFLLHREGMFNDTLRLIGEHHDGVSKANFSISRMTQDLAGTYRCYGSVTHSPYQVSAPSDPLDIVIIGLYEKPSLSAQLGPTVLAGENVTLSCSSRSSYDMYHLSREGEAHERRLPAGPKVNGTFQADFPLGPATHGGTYRCFGSFHDSPYEWSKSSDPLLVSVTGNPSNSWPSPTEPSSKTGNPRHLH | 6
KIR2DS1-Fc fusion protein (Fc fusion) HEGVHRKPSLLAHPGRLVKSEETVILQCWSDVMFEHFLLHREGMFNDTLRLIGEHHDGVSKANFSISRMKQDLAGTYRCYGSVTHSPYQLSAPSDPLDIVIIGLYEKPSLSAQPGPTVLAGENVTLSCSSRSSYDMYHLSREGEAHERRLPAGTKVNGTFQANFPLGPATHGGTYRCFGSFRDSPYEWSKSSDPLLVSVTGNPSNSWPSPTEPSSETGNPRHLH | 23
